Source: paper PMC7841149

Target: integrin α5 on preosteoblastic MC3T3-E1 cells (mouse (endogenous in MC3T3-E1)) (UniProt P11688)
UniProt P11688, sequence (P11688 45-1053): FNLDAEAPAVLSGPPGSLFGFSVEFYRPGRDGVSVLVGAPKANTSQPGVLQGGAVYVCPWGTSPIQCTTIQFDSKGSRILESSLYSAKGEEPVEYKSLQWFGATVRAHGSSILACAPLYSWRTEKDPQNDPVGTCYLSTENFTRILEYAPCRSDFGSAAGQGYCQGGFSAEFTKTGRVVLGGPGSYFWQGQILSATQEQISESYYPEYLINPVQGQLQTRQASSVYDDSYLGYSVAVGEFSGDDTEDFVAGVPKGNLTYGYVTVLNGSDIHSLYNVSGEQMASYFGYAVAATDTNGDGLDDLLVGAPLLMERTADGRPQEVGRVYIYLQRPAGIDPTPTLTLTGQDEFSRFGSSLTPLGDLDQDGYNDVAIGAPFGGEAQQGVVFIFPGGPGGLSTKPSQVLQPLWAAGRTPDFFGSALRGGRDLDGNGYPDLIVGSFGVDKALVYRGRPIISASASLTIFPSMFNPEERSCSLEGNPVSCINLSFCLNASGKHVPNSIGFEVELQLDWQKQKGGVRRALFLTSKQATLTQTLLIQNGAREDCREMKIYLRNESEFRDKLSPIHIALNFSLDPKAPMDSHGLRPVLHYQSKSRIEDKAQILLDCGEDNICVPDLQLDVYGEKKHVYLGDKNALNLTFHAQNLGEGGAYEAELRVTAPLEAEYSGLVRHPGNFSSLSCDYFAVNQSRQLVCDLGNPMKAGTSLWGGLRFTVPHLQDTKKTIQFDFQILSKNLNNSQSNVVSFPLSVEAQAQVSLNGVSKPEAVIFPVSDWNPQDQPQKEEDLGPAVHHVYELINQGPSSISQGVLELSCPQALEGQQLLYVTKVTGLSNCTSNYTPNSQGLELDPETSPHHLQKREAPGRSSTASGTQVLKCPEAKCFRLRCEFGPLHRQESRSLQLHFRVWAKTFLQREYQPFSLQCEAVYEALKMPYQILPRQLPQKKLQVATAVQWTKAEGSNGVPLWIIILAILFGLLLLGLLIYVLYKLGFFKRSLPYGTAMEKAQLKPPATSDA

- forward migration index (FMI) of MC3T3-E1 cells toward a gradient of 150 ng/ml CTGF with neutralizing integrin α5 antibody (5 μg/ml pretreatment, 15 μg/ml in the reservoir), 12 h: 0.02
- forward migration index (FMI) of MC3T3-E1 cells toward a gradient of 150 ng/ml CTGF, μ-slide chemotaxis chamber, 12 h, CTGF group without antibody: 0.5
- migration distance of MC3T3-E1 cells toward a gradient of 150 ng/ml CTGF with neutralizing integrin α5 antibody, 12 h: 129 μm
- migration distance of MC3T3-E1 cells toward a gradient of 150 ng/ml CTGF, 12 h, CTGF group without antibody: 162 μm
- velocity of MC3T3-E1 cells migrating toward a gradient of 150 ng/ml CTGF with neutralizing integrin α5 antibody, 12 h: 0.25 μm/min
- velocity of MC3T3-E1 cells migrating toward a gradient of 150 ng/ml CTGF, 12 h, CTGF group without antibody: 0.32 μm/min
Substance: connective tissue growth factor (CTGF), recombinant (from UniProt P29279 27-349) (ligand)
